Changes are numbered by the printed parent chain.

We go through eleven molecules from article PMC3400562 (2012).

The labels stand for the following.
B1: 2F5 variant r4W3 (antibody, V domains shown)
VH: RITLKESGPPLVKPTQTLTLTCSFSGFSLSDFGVGVGWIRQPPGKALEWLAIIYSDDDKRYSPSLNTRLTITKDTSKNQVVLVMTRVSPVDTATYFCAHRRGPWFGWWRGPVNAMDVWGQGITVTISS
VL: ALQLTQSPSSLSASVGDRITITCRASQGVTSALAWYRQKPGSPPQLLIYDASSLESGVPSRFSGSGSGTEFTLTISTLRPEDFATYYCQQLHFYPHTFGGGTRVDVR
B2: 2F5 variant e4W (antibody, V domains shown)
VH: RITLKESGPPLVKPTQTLTLTCSFSGFSLSDFGVGVGWIRQPPGKALEWLAIIYSDDDKRYSPSLNTRLTITKDTSKNQVVLVMTRVSPVDTATYFCAHRRGPTTGGLFGWGGPIARGPVNAMDVWGQGITVTISS
VL: B1 VL
B3: 2F5 variant e2W (antibody, V domains shown)
VH: RITLKESGPPLVKPTQTLTLTCSFSGFSLSDFGVGVGWIRQPPGKALEWLAIIYSDDDKRYSPSLNTRLTITKDTSKNQVVLVMTRVSPVDTATYFCAHRRGPTTGLFGWGPIARGPVNAMDVWGQGITVTISS
VL: B1 VL
B4: 2F5 variant r6W (antibody, V domains shown)
VH: RITLKESGPPLVKPTQTLTLTCSFSGFSLSDFGVGVGWIRQPPGKALEWLAIIYSDDDKRYSPSLNTRLTITKDTSKNQVVLVMTRVSPVDTATYFCAHRRGLFGWRGPVNAMDVWGQGITVTISS
VL: B1 VL
B5: 2F5 variant r4W2a (antibody, V domains shown)
VH: B1 VH with W104L
VL: B1 VL
B6: 2F5 variant r2W (antibody, V domains shown)
VH: RITLKESGPPLVKPTQTLTLTCSFSGFSLSDFGVGVGWIRQPPGKALEWLAIIYSDDDKRYSPSLNTRLTITKDTSKNQVVLVMTRVSPVDTATYFCAHRRGPTLFGWIARGPVNAMDVWGQGITVTISS
VL: B1 VL
B7: 2F5 variant r4WY2 (antibody, V domains shown)
VH: B1 VH with W104Y, W108Y
VL: B1 VL
B8: 2F5 variant r4W2b (antibody, V domains shown)
VH: B1 VH with W104L, G106W, W108A
VL: B1 VL
B9: 2F5 variant r4W (antibody, V domains shown)
VH: B1 VH with W104L, W108A
VL: B1 VL
B10: 2F5 variant r4WY (antibody, V domains shown)
VH: B1 VH with W104L, W108Y
VL: B1 VL
B11: 2F5 variant r4W2c (antibody, V domains shown)
VH: B1 VH with W108A
VL: B1 VL

For the first assay, the target named is wt MPER peptide (HIV-1).
Broadly, the Kd is the concentration at which binding is half-saturated. Read a high Kd as weaker binding. Consider B1, for which the Kd came to 2.2 nM.

A further assay concerns the target wt MPER peptide (HIV-1). The source holds these as a separate data set.
In the case of B2, the Kd is 145 nM. This lies in the sub-micromolar range.

The molecule B3 came in with a Kd of 131 nM.

B4 gave a Kd of 353 nM.

In turn, B5 showed a Kd of 2.57 nM.

Molecule B6 yielded a dissociation constant (Kd) of 29.5 nM.

In the case of B7, the Kd turned out to be 5.49 nM.

B8 had a Kd of 3.94 nM.

Take B9: the Kd was 79.6 nM.

The molecule B10 yielded a Kd of 2.77 nM. This Kd is about 29-fold lower than that of the molecule before.

For the molecule B11, the dissociation constant Kd is 5.12 nM. This Kd is about 1.8-fold higher than that of the molecule before.

The next assay has as its target wt MPER peptide (HIV-1). This is another data set of the same source.
Broadly, the koff is a measure of how fast the partners let go of each other. In the case of B1, the koff was 0.00174 s⁻¹.

The next assay addresses wt MPER peptide (HIV-1). The source holds these as a separate data set.
As to B2, the koff was 0.0105 s⁻¹.

Regarding B3, the koff stood at 0.0105 s⁻¹.

In turn, B4 came in with a koff of 0.0224 s⁻¹.

In the case of B5, the koff amounted to 0.00106 s⁻¹.

Molecule B6 returned a koff of 0.00435 s⁻¹.

For the molecule B7, the koff worked out at 0.00193 s⁻¹. This koff is about 2.3-fold lower than that of the molecule before.

As for B8, the koff was 0.0034 s⁻¹.

B9 registered an off-rate (koff) of 0.00681 s⁻¹.

The molecule B10 yielded a koff of 0.00055 s⁻¹.

Take B11: the koff amounted to 0.00112 s⁻¹.
